How the values were obtained:
[1] = target: BT8, RyR2 extreme C-terminal domain (bait) (human); assay: two-hybrid; GAL4 system in yeast; quantitative liquid culture β-Gal assay (ONPG), 30 °C; normalized against the positive control pVA3 + pTD1
[2] = target: the molecule itself; assay: cross-linking; glutaraldehyde (0.0025% v/v, 0-60 min, RT) on HEK293 cell homogenate treated with dithiothreitol; SDS-PAGE and blot with Ab^cMyc

Molecule	β-Gal activity, percent of the positive control (pVA3 + pTD1) [1] [%]	stoichiometry N [2]
RyR2 N-terminal fragment (RyR2 residues 1 - 906), GAL4 fusions for yeast two-hybrid (from UniProt Q92736 1-906) (domain or fragment)	< 10	
RyR2 N-terminus domain (residues 1 - 906), cMyc-tagged (BT4L) or HA-tagged (AD4L), expressed in HEK293 (domain or fragment, human, UniProt Q92736 1-906, looked up, ryanodine receptor 2 (RyR2), human, residues 1-906; Two copies of the same stretch, each with ONE tag: in the co-IP cMyc-BT4L and HA-AD4L were co-expressed; in the cross-linking cMyc-BT4L was expressed alone; also called cMyc-BT4L; source: HEK293, transiently transfected (calcium phosphate), in lysate or homogenate) MADGGEGEDEIQFLRTDDEVVLQCTATIHKEQQKLCLAAEGFGNRLCFLESTSNSKNVPPDLSICTFVLEQSLSVRALQEMLANTVEKSEGQVDVEKWKFMMKTAQGGGHRTLLYGHAILLRHSYSGMYLCCLSTSRSSTDKLAFDVGLQEDTTGEACWWTIHPASKQRSEGEKVRVGDDLILVSVSSERYLHLSYGNGSLHVDAAFQQTLWSVAPISSGSEAAQGYLIGGDVLRLLHGHMDECLTVPSGEHGEEQRRTVHYEGGAVSVHARSLWRLETLRVAWSGSHIRWGQPFRLRHVTTGKYLSLMEDKNLLLMDKEKADVKSTAFTFRSSKEKLDVGVRKEVDGMGTSEIKYGDSVCYIQHVDTGLWLTYQSVDVKSVRMGSIQRKAIMHHEGHMDDGISLSRSQHEESRTARVIRSTVFLFNRFIRGLDALSKKAKASTVDLPIESVSLSLQDLIGYFHPPDEHLEHEDKQNRLRALKNRQNLFQEEGMINLVLECIDRLHVYSSAAHFADVAGREAGESWKSILNSLYELLAALIRGNRKNCAQFSGSLDWLISRLERLEASSGILEVLHCVLVESPEALNIIKEGHIKSIISLLDKHGRNHKVLDVLCSLCVCHGVAVRSNQHLICDNLLPGRDLLLQTRLVNHVSSMRPNIFLGVSEGSAQYKKWYYELMVDHTEPFVTAEATHLRVGWASTEGYSPYPGGGEEWGGNGVGDDLFSYGFDGLHLWSGCIARTVSSPNQHLLRTDDVISCCLDLSAPSISFRINGQPVQGMFENFNIDGLFFPVVSFSAGIKVRFLLGGRHGEFKFLPPPGYAPCYEAVLPKEKLKVEHSREYKQERTYTRDLLGPTVSLTQAAFTPIPVDTSQIVLPPHLERIREKLAENIHELWVMNKIELGWQYGP		4

— article PMC5065051, “Genetic and Biochemical Approaches for In Vivo and In Vitro Assessment of Protein Oligomerization: The Ryanodine Receptor Case Study” (Journal of Visualized Experiments : JoVE, 2016)
